Test results reported in PMC9701387, “CDH17 nanobodies facilitate rapid imaging of gastric cancer and efficient delivery of immunotoxin” (Biomaterials Research, 2022).

B1: E8 nanobody (VHH)
VHH: AVQLVESGGGLVQPGGSLRLSCTASGSILSFNSMGWHRQAPGRQRELVAGISIHKTSSNYANFVKGRFTISRDDAKNTVYLQMNSLKPEDTAVYYCAAVQRGQSRISYWGQGTQVTVSS
notes: from a naive alpaca VHH phage library; shorter CDR3 than A1; HA tag joined to the C-terminus by a GA linker; a cysteine is attached at the end of the HA tag; The purified protein was confirmed with His tag and HA tag antibodies; also called CDH17 nanobody E8; naked E8 nanobody; source: E. coli (pColdII vector), purified (Ni-NTA); not shown: HA, C-terminal, kept
B2: A1 nanobody (VHH)
VHH: AVQLVESGGGLVQAGDSLRLSCAASGRTFSSNGMGWFRQAPGKGREFVAAISWNAGTTLYTDSVKGRFTISRDNAKNTVYLQMNSLKPEDTAIYYCAAREYYGGSYYPSREYEYGYWGQGTQVTVSS
notes: from a naive alpaca VHH phage library; HA tag joined to the C-terminus by a GA linker; a cysteine is attached at the end of the HA tag; The purified protein was confirmed with His tag and HA tag antibodies; also called CDH17 nanobody A1; source: E. coli (pColdII vector), purified (Ni-NTA); not shown: HA, C-terminal, kept
B3: CDH17 domain 1-3 (human), recombinant (domain or fragment)
chain: QEGKFSGPLKPMTFSIYEGQEPSQIIFQFKANPPAVTFELTGETDNIFVIEREGLLYYNRALDRETRSTHNLQVAALDANGIIVEGPVPITIKVKDINDNRPTFLQSKYEGSVRQNSRPGKPFLYVNATDLDDPATPNGQLYYQIVIQLPMINNVMYFQINNKTGAISLTREGSQELNPAKNPSYNLVISVKDMGGQSENSFSDTTSVDIIVTENIWKAPKPVEMVENSTDPHPIKITQVRWNDPGAQYSLVDKEKLPRFPFSIDQEGDIYVTQPLDREEKDAYVFYAVAKDEYGKPLSYPLEIHVKVKDINDNPPTC
notes: Cadherin-17 (CDH17, LI-cadherin), human, extracellular cadherin domains 1-3; soluble protein of about 40 kD; the supplementary methods (Additional file 1) may hold them; also called extracellular domain 1-3 of CDH17; CDH17 protein; source: E. coli BL21 (DE3), purified (Ni-NTA, Superdex gel filtration)

Key:
[1] = biological target: B3; experiment: SPR; format and conditions not told in the text shown; settings: both partners purified
E8-PE38 immunotoxin = E8-PE38 immunotoxin (alpaca (Lama pacos) | Pseudomonas …); experiment: as above; settings: both partners purified

Binder | Kd [1] | Kd (E8-PE38 immunotoxin)
B1 | 70.3 nM | –
B2 | 377 nM | –
B3 | – | 86.9 nM
